From patent publication US7579445

How the values were obtained:
[1] = molecular target: surface of P815-PSA cells (PSA-transfected DBA/2 mastocytoma cell line); experiment: FACS on P815-PSA cells; negative control 3
[2] = molecular target: surface of P815-PSA cells (PSA-transfected DBA/2 mastocytoma cell line); experiment: FACS on P815-PSA cells; negative control 5
[3] = molecular target: surface of Line-1-PSA cells (PSA-transfected Balb/cByJ lung carcinoma cell line); experiment: FACS on Line 1-PSA cells; negative control 4
[4] = molecular target: surface of Line-1-PSA cells (PSA-transfected Balb/cByJ lung carcinoma cell line); experiment: FACS on Line 1-PSA cells; negative control 7

MOPC-21 (antibody) gave a mean fluorescence [1] of 11, a mean fluorescence [2] of 37 and a mean fluorescence [3] of 5. The mean fluorescence [4] was 8.
